Drawing on publication PMC7700423, “Differential Effects of 1α,25-Dihydroxyvitamin D3 on the Expressions and Functions of Hepatic CYP and UGT Enzymes and Its Pharmacokinetic Consequences In Vivo” (Pharmaceutics, 2020), this text covers Km and Vmax for 2 proteins.

Substrate in series [1]: CCCCNC(=O)NS(=O)(=O)c1ccc(C)cc1
Substrate in series [2]: CC(NC(C)(C)C)C(=O)c1cccc(Cl)c1

B1: Cyp2c11 (Rattus norvegicus) (protein)
chain: MDPVLVLVLTLSSLLLLSLWRQSFGRGKLPPGPTPLPIIGNTLQIYMKDIGQSIKKFSKVYGPIFTLYLGMKPFVVLHGYEAVKEALVDLGEEFSGRGSFPVSERVNKGLGVIFSNGMQWKEIRRFSIMTLRTFGMGKRTIEDRIQEEAQCLVEELRKSKGAPFDPTFILGCAPCNVICSIIFQNRFDYKDPTFLNLMHRFNENFRLFSSPWLQVCNTFPAIIDYFPGSHNQVLKNFFYIKNYVLEKVKEHQESLDKDNPRDFIDCFLNKMEQEKHNPQSEFTLESLVATVTDMFGAGTETTSTTLRYGLLLLLKHVDVTAKVQEEIERVIGRNRSPCMKDRSQMPYTDAVVHEIQRYIDLVPTNLPHLVTRDIKFRNYFIPKGTNVIVSLSSILHDDKEFPNPEKFDPGHFLDERGNFKKSDYFMPFSAGKRICAGEALARTELFLFFTTILQNFNLKSLVDVKDIDTTPAISGFGHLPPFYEACFIPVQRADSLSSHL
One may read the Km as the substrate concentration at which the rate is half of its maximum. As to B1, in series [1], the Michaelis constant (Km) stood at 232.83 ± 51.33 µM and the Vmax amounted to 683.37 ± 94.05 pmol/min/mg protein.

B2: Cyp2b1 (Rattus norvegicus) (protein)
chain: MEPTILLLLALLVGFLLLLVRGHPKSRGNFPPGPRPLPLLGNLLQLDRGGLLNSFMQLREKYGDVFTVHLGPRPVVMLCGTDTIKEALVGQAEDFSGRGTIAVIEPIFKEYGVIFANGERWKALRRFSLATMRDFGMGKRSVEERIQEEAQCLVEELRKSQGAPLDPTFLFQCITANIICSIVFGERFDYTDRQFLRLLELFYRTFSLLSSFSSQVFEFFSGFLKYFPGAHRQISKNLQEILDYIGHIVEKHRATLDPSAPRDFIDTYLLRMEKEKSNHHTEFHHENLMISLLSLFFAGTETSSTTLRYGFLLMLKYPHVAEKVQKEIDQVIGSHRLPTLDDRSKMPYTDAVIHEIQRFSDLVPIGVPHRVTKDTMFRGYLLPKNTEVYPILSSALHDPQYFDHPDSFNPEHFLDANGALKKSEAFMPFSTGKRICLGEGIARNELFLFFTTILQNFSVSSHLAPKDIDLTPKESGIGKIPPTYQICFSAR
Take B2: in series [2], the Michaelis constant (Km) was 171.70 ± 39.46 µM and the Vmax is listed as 35.20 ± 6.62 pmol/min/mg protein.
